Several values for one entry are separate records, joined by “and”; a condition that tells them apart may be missing. Identical values can stand only once.
Tests used:
[1] = Single dose pharmacokinetics of EXT607 in male rats; conditions: in vivo, rat
Description: In a single dose pharmacokinetic study, EXT607 was formulated in PBS and groups of male rats (n=3) were dosed at a volume of 1 ml/kg as follows: Group 1, 100 μg/kg intravenous; Group 2, 30 μg/kg subcutaneous; Group 3, 100 μg/kg subcutaneous; Group 4, 300 μg/kg subcutaneous. Blood (0.25 mL) was collected via the jugular vein cannula, transferred into tubes containing K2EDTA, and kept on wet ice until processed for plasma. Blood samples were collected at 0 (predose), 0.083 (IV only), 0.25, 0.5, 1, 2, 4, 6, 8, 12, 24, 36, 48, 60 and 72 h postdose.
(§1) Pharmacokinetic parameters were determined from the plasma concentration versus time data (Table 4) by a non-compartmental analysis with uniform weighting using Phoenix® WinNonlin® Version 6.3 (Certara L.P. (Pharsight), St. Louis, MO). The concentration versus time data were analyzed using the IV bolus or extravascular administration models. Best fit Lambda z ranges were used.

[2] = Single dose pharmacokinetics of EXT607 in male cynomolgus monkeys; format: in vivo; conditions: cynomolgus monkey
Description: In a single dose pharmacokinetic study, EXT607 was formulated in PBS and groups of male cynomolgus monkeys (n=3), weighing approximately 4 kg each, were dosed at a volume of 1 ml/kg as follows: Group 1, 20 μg/kg intravenous; Group 2, 7 μg/kg subcutaneous; Group 3, 20 μg/kg subcutaneous; Group 4, 70 μg/kg subcutaneous. Blood (1.0 mL) was collected via the jugular vein cannula, transferred into tubes containing K2EDTA, and kept on wet ice until processed for plasma. Blood samples were collected at 0 (pre-dose), 0.083 (IV only), 0.25, 0.5, 1, 2, 4, 6, 8, 12, 24, 36, 48, 60 and 72 h post-dose.
as §1, with “5)” for “4)”
At low doses, the rate of subcutaneous absorption is slower than at high doses, leading to a lower Cmax and an overall flatter PK profile.

[3] = test system: Thyroparathyroidectomized (TPTx) rats; assay: 28-day pharmacodynamic study in thyroparathyroidectomized (TPTx) rats; format: in vivo, rat; conditions: for % Increase in Serum Calcium, Cumulative: Days 1, 12, 27, relative to TPTx/vehicle; for increase in serum calcium compared to TPTx controls (in words): daily SC dosing (EXT607 1, 3, 10 nmol/kg; PTH peptides 10 nmol/kg); for decrease in serum phosphate (in words): daily SC dosing (EXT607 all dose levels; PTH peptides 10 nmol/kg), from Day 12
From the text: 28-day Pharmacodynamic Study of EXT607 in TPTx Rats. Thyroparathyroidectomized (TPTx) rats are a model for hypoparathyroidism. To produce TPTx rats, the thyroid and parathyroid glands were surgically resected and the rats were given L-thyroxine to compensate for the loss of their thyroid. Due to the absence of PTH, TPTx rats had lower levels of serum calcium and higher levels of serum phosphate.
Each group consisted of 10 female rats split into two cohorts of 5 animals for blood sampling purposes. On days 1, 12, and 27, blood (˜0.2 ml) was collected into serum separation tubes at t=0 (pre-dose), 2, 6, 10, and 24 h. The samples were processed into serum by standard methods and analyzed for serum total calcium and phosphate.
Calcium levels at 3 and 10 nmol/kg (20 and 60 μg/kg) were at or just below the normal range of calcium levels for healthy animals. […] For each timepoint, the percent increase in serum calcium relative to the TPTx vehicle control group (Group 2) was determined and daily averages were calculated (Table 9B). Over the three days sampled (Days 1, 12, and 27), […] increased serum calcium an average of 17, 28, and 37% at 1, 3, and 10 nmol/kg, respectively.
At each timepoint, the percent decrease in serum phosphate relative to the TPTx vehicle control group (Group 2) was determined, and daily averages were calculated (Table 9C).

[4] = 7 μg/kg SC relative to 70 μg/kg SC
[5] = 20 μg/kg SC relative to 70 μg/kg SC
[6] = in vivo, 7 ug/kg, single 7 μg/kg SC
[7] = in vivo, 20 ug/kg, single 20 μg/kg IV
[8] = in vivo, 20 ug/kg, single 20 μg/kg SC
[9] = in vivo, 70 ug/kg, single 70 μg/kg SC
[10] = 10 nmol/kg SC daily, Day 1, relative to TPTx/vehicle
[11] = 10 nmol/kg SC daily, Day 12, relative to TPTx/vehicle
[12] = 10 nmol/kg SC daily, Day 27, relative to TPTx/vehicle

`C=C1CC[C@H](OCCCNC(=O)CCOCCOCCOCCOCCOCCOCCOCCOCCOCCOCCOCCOCCOCCOCCOCCOCCOCCOCCOCCOCCOCCOCCOCCOCCOCCOCCOCCOCCOCCOCCOCCOCCOCCOCCOCCOCCNC(=O)CCN2C(=O)CC(SC[C@H](NC(=O)[C@H](Cc3ccccc3)NC(=O)[C@H](CC(N)=O)NC(=O)[C@H](Cc3c[nH]cn3)NC(=O)[C@@H](NC(=O)[C@H](CC(=O)O)NC(=O)[C@H](CCC(N)=O)NC(=O)[C@H](CC(C)C)NC(=O)[C@H](CCCCN)NC(=O)[C@H](CCCCN)NC(=O)[C@H](CCCNC(=N)N)NC(=O)[C@H](CC(C)C)NC(=O)[C@H](Cc3c[nH]c4ccccc34)NC(=O)[C@H](CCC(=O)O)NC(=O)[C@@H](NC(=O)[C@H](CCCNC(=N)N)NC(=O)[C@H](CCC(=O)O)NC(=O)[C@H](CCSC)NC(=O)[C@H](CO)NC(=O)[C@H](CC(N)=O)NC(=O)[C@H](CC(C)C)NC(=O)[C@H](Cc3c[nH]cn3)NC(=O)[C@H](CCCCN)NC(=O)CNC(=O)[C@H](CC(C)C)NC(=O)[C@H](CC(N)=O)NC(=O)[C@H](Cc3c[nH]cn3)NC(=O)[C@H](CCSC)NC(=O)[C@H](CC(C)C)NC(=O)[C@H](CCC(N)=O)NC(=O)[C@@H](NC(=O)[C@H](CCC(=O)O)NC(=O)[C@H](CO)NC(=O)[C@@H](NC(=O)[C@@H](N)CO)C(C)C)[C@@H](C)CC)C(C)C)C(C)C)C(=O)O)C2=O)C/C1=C/C=C1\CCC[C@]2(C)[C@@H]([C@H](C)CCCC(C)(C)O)CC[C@@H]12` (some centres unmarked) [EXT607] gave an AUC(0-inf) ([1]; 30 ug/kg, single 30 μg/kg SC) of 186 ng·h/mL, an MRT ([1]; 30 ug/kg, single 30 μg/kg SC) of 15.9 h and a bioavailability ([1]; 30 ug/kg, single 30 μg/kg SC, read-out: Bioavailability) of 12.9%. The AUC(0-inf) ([1]; 100 ug/kg, single 100 μg/kg IV) was 4390 ng·h/mL, the C0 ([1]; 100 ug/kg, single 100 μg/kg IV) was 2860 ng/mL and the MRT ([1]; 100 ug/kg, single 100 μg/kg IV) was 3.49 h. It also gave a Vd ([1]; 100 ug/kg, single 100 μg/kg IV, read-out: VZ) of 0.304 L/kg, an AUC(0-inf) ([1]; 100 ug/kg, single 100 μg/kg SC) of 472 ng·h/mL and an MRT ([1]; 100 ug/kg, single 100 μg/kg SC) of 13.7 h. For the same molecule, the bioavailability ([1]; 100 ug/kg, single 100 μg/kg SC, read-out: Bioavailability) was 10.7%, the half-life ([1]; 300 ug/kg, SC 30, 100 or 300 μg/kg, read-out: half-life) was 7 to 15 h and the AUC(0-inf) ([1]; 300 ug/kg, single 300 μg/kg SC) was 1290 ng·h/mL. The MRT ([1]; 300 ug/kg, single 300 μg/kg SC) was 13.6 h, the bioavailability ([1]; 300 ug/kg, single 300 μg/kg SC, read-out: Bioavailability) was 9.67% and the half-life ([1]; sc, rats, after subcutaneous dosing, read-out: terminal half-life) was 8 to 15 h. For the same molecule, the bioavailability ([1]; male rats, based on AUC vs intravenous injection, across SC doses, read-out: subcutaneous bioavailability (% F)) was 10 to 13%, the “dose-adjusted AUC ratio” value [2, 4] was 0.95 and the “dose-adjusted Cmax ratio” value [2, 4] was 0.28. For the same molecule, the “dose-adjusted AUC ratio” value [2, 5] was 0.85, the “dose-adjusted Cmax ratio” value [2, 5] was 0.55 and the “dose-adjusted AUC ratio” value ([2]; 70 μg/kg SC (reference)) was 1.00. The “dose-adjusted Cmax ratio” value ([2]; 70 μg/kg SC (reference)) was 1.00, the half-life ([2]; in vivo, sc, NHP, after subcutaneous dosing, read-out: terminal half-life) was 24 to 32 h and the AUC(0-inf) [2, 6] was 483 ng·h/mL. The MRT [2, 6] was 29.5 h, the half-life ([2]; in vivo, 7 ug/kg, single 7 μg/kg SC, read-out: t1/2 (converted)) was 24 h and the AUC(0-inf) [2, 7] was 2850 ng·h/mL. For the same molecule, the C0 [2, 7] was 782 ng/mL, the MRT [2, 7] was 11.2 h and the Vd ([2]; in vivo, 20 ug/kg, single 20 μg/kg IV, read-out: VZ) was 0.34 L/kg. For the same molecule, the half-life ([2]; in vivo, 20 ug/kg, single 20 μg/kg IV, read-out: t1/2 (converted)) was 32.3 h, the AUC(0-inf) [2, 8] was 1290 ng·h/mL and the AUC(0-t) [2, 8] was 1160 ng·h/mL. The MRT [2, 8] was 23.3 h, the half-life ([2]; in vivo, 20 ug/kg, single 20 μg/kg SC, read-out: t1/2 (converted)) was 24.3 h and the AUC(0-inf) [2, 9] was 5300 ng·h/mL. It also gave an MRT [2, 9] of 17.5 h, a half-life ([2]; in vivo, 70 ug/kg, single 70 μg/kg SC, read-out: t1/2 (converted)) of 27.7 h and a bioavailability ([2]; in vivo, across SC doses, read-out: bioavailability when delivered subcutaneously) of 45 to 54%. It also gave a half-life ([2]; in vivo, across doses, read-out: t1/2 of elimination) of 24 to 32 h.

With `CC[C@H](C)[C@H](NC(=O)[C@H](CCC(=O)O)NC(=O)[C@H](CO)NC(=O)[C@@H](NC(=O)[C@@H](N)CO)C(C)C)C(=O)N[C@@H](CCC(N)=O)C(=O)N[C@@H](CC(C)C)C(=O)N[C@@H](CCSC)C(=O)N[C@@H](Cc1c[nH]cn1)C(=O)N[C@@H](CC(N)=O)C(=O)N[C@@H](CC(C)C)C(=O)NCC(=O)N[C@@H](CCCCN)C(=O)N[C@@H](Cc1c[nH]cn1)C(=O)N[C@@H](CC(C)C)C(=O)N[C@@H](CC(N)=O)C(=O)N[C@@H](CO)C(=O)N[C@@H](CCSC)C(=O)N[C@@H](CCC(=O)O)C(=O)N[C@@H](CCCNC(=N)N)C(=O)N[C@H](C(=O)N[C@@H](CCC(=O)O)C(=O)N[C@@H](Cc1c[nH]c2ccccc12)C(=O)N[C@@H](CC(C)C)C(=O)N[C@@H](CCCNC(=N)N)C(=O)N[C@@H](CCCCN)C(=O)N[C@@H](CCCCN)C(=O)N[C@@H](CC(C)C)C(=O)N[C@@H](CCC(N)=O)C(=O)N[C@@H](CC(=O)O)C(=O)N[C@H](C(=O)N[C@@H](Cc1c[nH]cn1)C(=O)N[C@@H](CC(N)=O)C(=O)N[C@@H](Cc1ccccc1)C(=O)O)C(C)C)C(C)C` [PTH(1-34), reference compound] the “% Decrease in Serum Phosphate, Daily Average” value (“% Decrease … Daily Average” below) [3, 10] was −1.7%, the “% Increase in Serum Calcium, Daily Average” value [3, 10] was 8.0% and the “% Decrease … Daily Average” value [3, 11] was 9.1%. For the same molecule, the “% Increase in Serum Calcium, Daily Average” value [3, 11] was 12%, the “% Decrease … Daily Average” value [3, 12] was 13% and the “% Increase in Serum Calcium, Daily Average” value [3, 12] was 6.4%. For the same molecule, the “% Increase in Serum Calcium, Cumulative” value ([3]; 10 nmol/kg SC daily) was 9% and 8.7%, the “increase in serum calcium compared to TPTx controls (in words)” value [3] was “minimal and did not reach statistical significance” and the “decrease in serum phosphate (in words)” value [3] was “Occasional decreases”.

B1: PTH(1-84): wild-type full-length parathyroid hormone, 84 amino acids, SEQ ID NO: 2 (protein, UniProt P01270 32-115, looked up)
Parathyroid hormone: SVSEIQLMHNLGKHLNSMERVEWLRKKLQDVHNFVALGAPLAPRDAGSQRPRKKEDNVLVESHEKSLGEADKADVNVLTKAKSQ
modifications: Parathyroid hormone
With B1 the “% Decrease … Daily Average” value [3, 10] was 0.2%, the “% Increase in Serum Calcium, Daily Average” value [3, 10] was 7.0% and the “% Decrease … Daily Average” value [3, 11] was 17%. The “% Increase in Serum Calcium, Daily Average” value [3, 11] was 14%, the “% Decrease … Daily Average” value [3, 12] was 17% and the “% Increase in Serum Calcium, Daily Average” value [3, 12] was 4.1%. The “% Increase in Serum Calcium, Cumulative” value ([3]; 10 nmol/kg SC daily) was 9% and 8.5%, the “% Decrease in Serum Phosphate, Combined” value ([3]; 10 nmol/kg SC daily, Days 12, 27, relative to TPTx/vehicle) was 17% and the “increase in serum calcium compared to TPTx controls (in words)” value [3] was “minimal and did not reach statistical significance with the exception of two isolated timepoints”. The “decrease in serum phosphate (in words)” value [3] was “Slight decreases”.

Source: patent US12233115B2, “Long-acting parathyroid hormone” (Extend Biosciences, Inc., priority 2022, dated 2025)
